Experimental data as given in article PMC6408466, “Inner lumen proteins stabilize doublet microtubules in cilia and flagella” (Nature Communications, 2019).

Biological target: T1, FAP45 (flagellar-associated protein 45) (Chlamydomonas (endogenous in wild type …, UniProt A8I9E8 1-501))
T1 construct: FAP45 of Chlamydomonas, a coiled-coil protein of 501 amino acids, predicted ~59 kDa; endogenous protein in the axoneme; also called FAP45/CCDC19; MIP3c; source: endogenous, isolated wild type Chlamydomonas axonemes
T1 sequence (looked up): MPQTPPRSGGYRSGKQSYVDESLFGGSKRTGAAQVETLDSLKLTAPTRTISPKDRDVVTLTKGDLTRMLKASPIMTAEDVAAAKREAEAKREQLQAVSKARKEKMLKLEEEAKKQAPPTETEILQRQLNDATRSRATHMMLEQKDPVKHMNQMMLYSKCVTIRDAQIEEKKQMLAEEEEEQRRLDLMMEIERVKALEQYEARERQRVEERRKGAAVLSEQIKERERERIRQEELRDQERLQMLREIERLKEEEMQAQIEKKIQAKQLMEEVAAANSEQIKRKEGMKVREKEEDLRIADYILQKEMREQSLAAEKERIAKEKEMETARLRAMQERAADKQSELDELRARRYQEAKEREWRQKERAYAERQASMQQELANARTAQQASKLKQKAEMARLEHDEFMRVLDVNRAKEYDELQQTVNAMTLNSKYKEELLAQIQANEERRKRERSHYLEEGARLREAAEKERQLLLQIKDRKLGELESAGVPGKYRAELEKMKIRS
Assay: cross-linking; EDC-crosslinked wild type axonemes solubilized, crosslinked products immunoprecipitated with anti-FAP45 antibody, LC tandem MS of the precipitates
Conditions: partners not purified

B1: FAP52 (flagellar-associated protein 52) (natural protein, UniProt A8ILK1 1-615, looked up)
chain: MAEPLVLNSVIGFGGAIENGLIAHPDGRTIIYPLGSTIVLRDRADPRSQEFLQGHSDKVSCLALSRSGRYLASGQITYMGFTADIIIWDLESKQLIHRMALHKVKVQALDFSCDERFLASLGGQDDNALVLWDVASGNAICGSPCNTNFTNCVKFFNNSPDKLITAGNFNMNVWTYDAGNNKLRPTDATLGTLKRVFKSVVVDANDEYAYCGTTTGDVLQIALERVLFKNTGPAKGNVQMGVTATCEVPTGDILVGGGDGSLQLLRKMPALAGTKVEGAITSIALADMNARGFTFFVGTAMCNIYKPATSRLKEELVQTAHNDKINGMAFPNEYSEVFATCGTGFIRLWHLTTCRELLRIAVPNLECFCIAFTTDGSAILSGWSDGKIRAFGPQSGKIIFTINDAHQKAVTAIASTADSSRILSGGEEGMVRVWRIGRTSQTLEASMKDHKGPVNCIRIKGSGDECVSASSDGSCILWDLHTFKRRTSLFANTFFKSVVYHPDESQLVTAGTDRKVTYWDAYDGNAIRIIDGSDLDEVNALAVDRDGEALVSGGGDKLVKLWGYDEGHCYFVGVAHSGAITAVGVTPDKQRIVSVGTEGGIFIWDYQRPQTLADI
notes: FAP52 of Chlamydomonas, ortholog of human WDR16, ~66 kDa, WD40 repeat protein; endogenous protein in the axoneme; also called FAP52/WDR16; MIP3a; source: endogenous, isolated wild type Chlamydomonas axonemes
- stoichiometry N: 1
